Measurements reported in US20240043563A1 (SHANGHAI MABGEEK BIOTECH, published 2024).

Experiments:
[1] = biological target: T1, human MASP-2 of human serum (human, UniProt O00187 16-686); assay: cell-based or functional assay
[2] = biological target: T1, human MASP-2 of human serum; assay: cell-based or functional assay; remark: listed apart in the source
Fc-cyno-MASP-2-CCS = Fc-cyno-MASP-2-CCS (human; cynomolgus monkey, UniProt P01857 119-329 = IgG part); assay: ELISA, plate coated with 1 ug/mL Fc-cyno-MASP-2-CCS
Protocol: The titer was tested by ELISA: an ELISA plate was coated with the Fc-hMASP-2A-CCS or Fc-hMASP-2-CCS antigen at a concentration of 1 μg/mL, 100 μL per well, and coated overnight at 4° C. The plate was washed twice with PBST (PBS containing 0.5% Tween-20) and then pat-dried. Each well was blocked with 200 μL of coating solution containing 1% BSA, blocked at room temperature for 4 hours, pat-dried, and stored in a refrigerator at −20° C. for use. During testing, 100 μL of mouse serum at different concentrations was added to each well of the ELISA plate, with two replicate wells for each concentration, and the plate was incubated at room temperature for 1.5 hours. The plate was washed three times with PBST and then pat-dried. 100 μL of HRP-labeled rabbit anti-mouse Ig antibody (purchased from Sigma) diluted with PBST by 1:10000 was added, and the plate was incubated at room temperature for 1 hour. The plate was washed three times with PBST and then pat-dried. 100 μL of chromogenic solution was added to each well (ELISA chromogenic solution A was mixed with chromogenic solution B at a volume ratio of 1:1 before use) for a chromogenic reaction, and then 100 μL of 2 M H₂SO₄ stopping solution was added to each well to terminate the reaction. The OD value of each well was immediately measured at 450 nm with a microplate reader (Molecular Device).
Murine anti-human MASP-2 monoclonal antibodies were purified by a Protein G affinity chromatography column, and then quantified by BCA method. The EC50 of anti-human MASP-2 monoclonal antibody binding to Fc-hMASP-2A-CCS or Fc-cyno-MASP-2-CCS was tested by ELISA. The testing method can refer to Example 2. A 96-well ELISA plate was coated with 1 μg/mL of Fc-hMASP-2A-CCS or Fc-cyno-MASP-2-CCS, and then added with murine anti-human MASP-2 monoclonal antibodies at different concentrations for testing.

[3] = biological target: T1, human MASP-2 of human serum; assay: cell-based or functional assay; remark: listed apart in the source
[4] = biological target: cynomolgus monkey MASP-2 of cynomolgus monkey serum (cynomolgus monkey); assay: cell-based or functional assay

T1 sequence (O00187 16-686 limits assumed): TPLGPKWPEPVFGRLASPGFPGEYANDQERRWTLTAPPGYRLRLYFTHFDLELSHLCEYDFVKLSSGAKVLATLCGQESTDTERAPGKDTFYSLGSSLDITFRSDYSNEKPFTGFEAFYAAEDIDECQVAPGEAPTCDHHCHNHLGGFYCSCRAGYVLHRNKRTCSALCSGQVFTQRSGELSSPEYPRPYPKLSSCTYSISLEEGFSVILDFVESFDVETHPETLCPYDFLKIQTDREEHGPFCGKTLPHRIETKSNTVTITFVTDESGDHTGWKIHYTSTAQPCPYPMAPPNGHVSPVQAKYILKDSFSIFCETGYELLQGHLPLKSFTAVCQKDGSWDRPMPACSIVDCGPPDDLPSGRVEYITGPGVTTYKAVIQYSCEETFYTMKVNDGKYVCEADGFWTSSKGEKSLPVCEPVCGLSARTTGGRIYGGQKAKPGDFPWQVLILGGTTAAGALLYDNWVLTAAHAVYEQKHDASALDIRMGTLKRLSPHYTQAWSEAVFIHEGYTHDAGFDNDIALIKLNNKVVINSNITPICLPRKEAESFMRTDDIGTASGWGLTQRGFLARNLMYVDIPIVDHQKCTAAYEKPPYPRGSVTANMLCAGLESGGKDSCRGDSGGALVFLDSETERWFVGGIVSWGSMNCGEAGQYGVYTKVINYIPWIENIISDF

Row | Binder | C4 cleavage IC50 (4% human serum) [1] [nM] | IC50 of inhibition of MASP-2-catalyzed C4 cleavage (4% human serum, C4b ELISA) [2] [nM] | further results
1 | humanized anti-human MASP-2 monoclonal antibody 100-Hu (antibody, human IgG4 S228P, kappa, V domains shown) VH: QVQLVESGGGVVQPGGSLRLSCAASGFTFSNFGIHWVRQAPGKGLEWVAYISSGGSAVFYADTVKGRFTISRDNSKNTLYLQMNSLRAEDTAVYYCAKSDRYFDYWGQGTTVTVSS VL: EIVLTQSPATLSLSPGERATLSCRASQSVSSSSYRYIHWYQQKPGQAPRLLIYYASNLESGIPARFSGSGSGTDFTLTISSLEPEDFAVYYCQHSWETPWTFGQGTKLEIKR | 0.281 | – | –
2 | murine anti-human MASP-2 monoclonal antibody 100 (antibody, V domains shown) VH: DVQLVESGGGLVQPGGSRKLSCAASGFTFSNFGIHWVRQAPEKGLEWVAYISSGGSAVFYADTVKGRFTISRDNSKNTLFLQMTSLRSEDTAIYYCAKSDRYFDYWGQGTTLTVSS VL: DIVLTQSPASLAVSLGQRATISCRASQSVSSSSYRYIHWYQQKPGQPPRLLIKYASNLESGVPARFSGSGSGTDFTLNIHPVEEEDTATYYCQHSWETPWTFGGGTKLEIK | – | 0.238 | –
3 | murine anti-human MASP-2 monoclonal antibody 124 (antibody, V domains shown, Murine monoclonal antibody purified from hybridoma by Protein G) VH: DVQLQESGPGLVKPSQSLSLTCTVTGYSITSDYAWNWIRQFPGNKLEWMGYISYSGRTSYNPSLKSRLSITRDTSKNQFFLQLTSVTTEDTATYYCARHYGDFWGQGTTLTVSS VL: DIVMTQSQKFMSTSVGDRVSVTCKASQNVDTNVAWFQQKPGQSPKPLIYSASYRYSGVPDRFTGSGSGTDFTLTISNVQSEDLANYFCQQYNSYPSTFGSGTKLEIK | – | 0.15 | EC50 (Fc-cyno-MASP-2-CCS): 0.179 nM
4 | humanized anti-human MASP-2 monoclonal antibody 124-Hu (antibody, human IgG4 S228P, kappa, V domains shown) VH: QVQLQESGPGLVKPSQTLSLTCTVSGYSITSDYAWNWIRQPPGKGLEWMGYISYSGRTSYNPSLKSRLTISRDTSKNQFSLKLSSVTAADTAVYYCARHYGDFWGQGTTVTVSS VL: DIQMTQSPSSLSASVGDRVTITCKASQNVDTNVAWYQQKPGKAPKLLIYSASYRYSGVPSRFSGSGSGTDFTLTISSLQPEDFATYYCQQYNSYPSTFGQGTKLEIKR | 0.214 | – | IC50 of inhibition of MASP-2-catalyzed C4 cleavage in 90% human serum [3]: 3.75 nM; IC50 of inhibition of MASP-2-mediated C3b production (4% C1q-removed human serum) [3]: 1.14 nM; IC50 of inhibition of MASP-2-catalyzed C4 cleavage in 90% cynomolgus monkey serum [4]: 168 nM
5 | murine anti-human MASP-2 monoclonal antibody 115 (antibody, V domains shown) VH: DVQLVESGGGLVQPGGSRKLSCAASGFTFSSFGMHWVRQAPEKGLEWVAYISSGSSSFFYADTVKGRFTISRDNPKNTLFLQMTSLRSEDTAMYYCARGDRNFDVWGAGTTVTVSS VL: DIVLTQSPASLAVSLGQRATISCRASQSVTSSRYSYMHWFQQKPGQPPNLLIKHASNLESGVPARFSGSGSGTDFTLNIHPVEEDDTATYYCQHSWEVPWTFGGGTKLEIK | – | 0.0826 | –
6 | murine anti-human MASP-2 monoclonal antibody 126 (antibody, V domains shown) VH: DVQLVESGGGLVQPGGSRKLSCVASGFTFSSFGMHWVRQAPEKGLEWVAYISSGSSSSFYVDTVKGRFTISRDNPKNTLFLQMTSLRSEDTAMYYCARGDRNFEVWGAGTTVTVSS VL: DIVLTQSPASLAVSLGQRATISCRASQSVSSSRYSYMHWFQQKPGQPPNLLIKHASNLESGVPARFSGSGSGTDFTLNIHPVEEEDTATYYCQQSWEVPWTFGGGTKLEIK | – | 0.0774 | –
7 | humanized anti-human MASP-2 monoclonal antibody 126-Hu (antibody, human IgG4 S228P, kappa, V domains shown) VH: QVQLVESGGGVVQPGRSLRLSCAASGFTFSSFGMHWVRQAPGKGLEWVAYISSGSSSSFYVDTVKGRFTISRDNSKNTLYLQMNSLRAEDTAVYYCARGDRNFEVWGQGTTVTVSS VL: DIQMTQSPSSLSASVGDRVTITCRASQSVSSSRYSYMHWFQQKPGKAPKLLIYHASNLESGVPSRFSGSGSGTDFTLTISSLQPEDFATYYCQQSWEVPWTFGQGTKLEIKR | 0.0598 | – | IC50 of inhibition of MASP-2-catalyzed C4 cleavage in 90% human serum [3]: 3.46 nM; IC50 of inhibition of MASP-2-mediated C3b production (4% C1q-removed human serum) [3]: 0.494 nM
8 | humanized anti-human MASP-2 monoclonal antibody 136-Hu (antibody, human IgG4 S228P, kappa, V domains shown) VH: QVQLVQSGAEVKKPGASVKVSCKASGNTFTNYWMHWIRQAPGQGLEWMGYINPNTGYTDFNQKFKDRVTLTADKSTSTAYMELSSLRSEDTAVYYCTLQLGRNFDYWGQGTTVTVSS VL: DIQMTQSPSSLSASVGDRVTITCRASQSVSSSRSTYIHWYQQKPGKAPKLLIYYSSNLESGVPSRFSGSGSGTDFTLTISSLQPEDFATYYCHQSWEIPYTFGQGTKLEIKR | 0.311 | – | –
9 | murine anti-human MASP-2 monoclonal antibody 120 (antibody, V domains shown, Murine monoclonal antibody purified from hybridoma by Protein G) VH: DVQLQESGPGLVKPSQSLSLTCTVTGYSITSDYAWSWIRQFLRNKLEWMGYISYSGRTSYNPSLKSRISITRDTSKNQFFLQLNSVTTEDTATYFCARLITGGDYWGQGTSVTVSS VL: DIVMTQSQKFMSTSVGDRVSVTCKASQNVGINVVWYQQKPGQSPKALIYSASYRFSGVPDRFTGSGSGTDFTLTISNVQSEDLAEYLCLQYDINPLTFGAGTKLELK | – | 0.275 | EC50 (Fc-cyno-MASP-2-CCS): 0.16 nM
10 | murine anti-human MASP-2 monoclonal antibody 136 (antibody, V domains shown) VH: QVQLQQSGAELAKPGASVKMSCKASGNTFTNYWMHWIKQRPGQGLEWVGYINPNTGYTDFNQKFKDKATLTADKSSTTAYMQLISLTSEDSTVYYCTLQLGRNFDYWGQGTTLTVSS VL: DIVLTQSPASLGVSLGQRATISCRASQSVSSSRSTYIHWYQQKPGQPPKLLIKYSSNLESGVPARFSGGGSGTDFTLNIHPVEAEDTATYYCHQSWEIPYTFGGGTKLEIR | – | 0.0757 | –
11 | murine anti-human MASP-2 monoclonal antibody 60 (antibody, V domains shown, Murine monoclonal antibody purified from hybridoma by Protein G) VH: QVQLQQSGAELMKPGASVKISCKATGYPFSTYWIEWVKQRPGHGLEWIGEILPGSDNTNYNEKFKGKATFTADTSSNTAYMQLSSLTSEDSAVYYCARRTTATRAWFVYWGQGTLVTVSA VL: DIVMSQSPSSLAVSVGEKVTMSCKSSQSLLYSSNQKNYLAWYQQKPGQSPKLLIYWASTRESGVPDRFTGSGSGTDFTLTISSVRAEDLAVYYCQHYYTYPWTFGGGTNLEIK | – | 0.161 | EC50 (Fc-cyno-MASP-2-CCS): 0.096 nM
